Measured values as given in US20250027068.

Biological target: pooled human IgG (human IgG1, 2, 3 and 4)

Protein	Enzyme Activity Endpoint Assay (purified): Fab′2 [ng/µL]	Enzyme Activity Endpoint Assay (purified): Fc [ng/µL]	Enzyme Activity Endpoint Assay (purified): IgG [ng/µL]	Enzyme Activity Endpoint Assay (purified): scIgG [ng/µL]
PRT-373 (protein) MSQTEDSESLQRLRDIEDFQAEKEKQNVVYTKWLDGVDVKDHDFRKIVDGNSAYYATPLLNGRGWYDINKDFNRDNDKCAAAVAANMFHYWLDRNRDNVDRFLRQNPEKHGIIELPDGQLKLSDFLNTYESDDGYRDKSKLFDFISENFNGPVWTDKLLDNYINGYAYNSKYGRTIEDSTKNTSKINFFKEVFNEKILTNNHSIRNQNEFSVLLIEALYTGKAIGLSYGPAGLRHGLGHIISVWGADLDADGNVVAIYVTDSDDKKLTIGDERVGLKRYKISTDDEGRLRLTAYEETHNTGGQVRGLWTLDTGKQAWADYFDKTEQTGTDQAEQ	392	295	38	281
PRT-651 (protein) MQITSVWTKGVTPLTPEQFRYNNEDVIHAPYLAHQGWYDITKAFDGKDNLLCGAATAGNMLHWWFDQNKTEIEAYLSKHPEKQKIIFNNQELFDLKAAIDTKDSQTNSQLFNYFRDKAFGNLSARQLGVMPDLVLDMFINGYYLNVGKTQSTDVNRPYQTRDKRGGIFDAVFTRGDQTTLLTARHDLKNKGLNDISTIIKQELTEGRALALSHTYANVSISHVINLWGADFNAEGNLEAIYVTDSDANASIGMKKYFVGINAHGHVAISAKKIEGENIGAQVLGLFTLSSGKDIWQKLSLEHHHHHH	542	367	168	359
PRT-603 (protein) MQITTVWTKGVTPLTPEQFRYNNEDVIHAPYLAHQGWYDITKAFDGKDNLLCGAATAGNMLHWWFDQNKTEIEAYLSKHPEKQKIIFNNQELFDLKAAIDTKDSQTNSQLFNYFRDKAFPNLSARQLGVMPDLVLDMFINGYYLNVFKTQSTDVNRPYQDKDKRGGIFDAVFTRGDQTTLLTARHDLKNGGLNDISTIIKQELQSGRALALSHTYANVSISHVINLWGADFNAEGNLEAIYVTDSDANASIGMKKYFVGINAHGHVAISAKKIEGENIGAQVLGLFTLSSGKDIWQKLSLEHHHHHH	965	486	0	0
PRT-610 (protein) MQITSVWTKGVTPLTPEQFRYNNEDVIHAPYLAHQGWYDITKAFDGKDNLLCGAATAGNMLHWWFDQNKTEIEAYLSKHPEKQKIIFNNQELFDLKAAIDTKDSQTNSQLFNYFRDKAFPNLSARQLGVMPDLVLDMFINGYYLNVFKTQSTDVNRPYQDKDKRGGIFDAVFTRGDQTTLLTARHDLKNKGLNDISTIIKQELTEGRALALSHTYANVSISHVINLWGADFNAEGNLEAIYVTDSDANASIGMKKYYVGINAHGHVAISAYKIEGENIGAQVLGLFTLSSGKDIWQKLSLEHHHHHH	688	381	0	0
PRT-605 (protein) MQITSVWTKGVTPLTPEQFRYNNEDVIHAPYLAHQGWYDITKAFDGKDNLLCGAATAGNMLHWWFEQNKTEIEAYLSKYGDTQKIIFNNQELFDLKAAIDTKDSQTNSQLFNYFRDKAFPNLSARQLGVMPDLVLDMFINGYYLNVFKTQSTDVNRPYQDKDKRGGIFDAVFTRGDQTTLLTARHDLKNKGLNDISTIIKQELTEGRALALSHTYANVSISHVINLWGADFNAEGNLEAIYVTDSDANASIGMKKYFVGINAHGHVAISAKKIEGENIGAQVLGLFTLSSGKEIWQKLSLEHHHHHH	617	357	100	157
PRT-611 (protein) MQITSVWTKGVTPLTPEQFRYNNEDVIHAPYLAHQGWYDITKAFDGKDNLLCGAATAGNMLHWWFDQNKTEIEAYLSKHPEKQKIIFNNQELFDLKAAIDTKDSQTNSQLFNYFRDKAFPNLSARQLGVMPDLVLDMFINGYYLNVFKTQSTDVNRPYQDKDKRGGIFDAVFTRGDQTTLLTARYDLYNKGLNDISTIIKQELTEGRALALSHTYANVSISHVINLWGADFNAEGNLEAIYVTDSDANASIGMKKYFVGINAHGHVAISAKKIEGENIGAQVLGLFTLSSGKDIWQKLSLEHHHHHH	924	490	0	0
PRT-641 (protein) MQITSVWTKGVTPLTPEQFRYNNEDVIHAPYLAHQGWYDITKTMNGKDDLLCGAATAGNMLHWWFDQNKTEIEAYLSKHPEKQKIIFNNQELFDLKAAIDTKDSQTNSQLFNYFRDKAFPNLSARQRGVMPDLVLDMFINGYYLNVFKTQSTDVNRPYQDKDKRGGIFDAVFTRGDQTTLLTARHDLKNKGLNDISTIIKQELTEGRALALSHTYANVSISHVINLWGADFNAEGNLEAIYVTDSDARENIGMKKYFVGINAHGHVAISAKKIEGENIGAQVLGLFTLSSGKDIWQKLSLEHHHHHH	975	336	0	0
PRT-684 (protein) MQITSVWTKGVTPLTPEQFTNNNEDVIHAPYLANQGWYDITKTFNGKDNLLCGAATAGNMLHWWFDQNKEEIEAYLKKHPEKQKIIFNNQELFDLKKAIDTKDSQTNSALFNYFRDKAFPNLSARQLGVMPDLVLDMFINGYYLNVFKTQSTDVNRPYQTKDKRGGIFDAVFTRGDQTTLLTARHDLKNKGLNEISDIIKQELTEGKALALSHTYANVSISHVINLWGADFNAEGNLIAIYVTDSDANASIGMKKYFVGVNSHGKVAISAKKIEGENIGAQVLGLFTLSSGQDIWQKLSLEHHHHHH	1060	542	0	0
PRT-690 (protein) MQITSVWTKGVTPPTPEQFRYNNEDVIHAPYLANQGWYDITKTFNGKDNLLCGAATAGNMLHWWFDQNKTEIEAYLSKYPEKQKIIFNNQELFDLRAAINTKDSQTNSQLFNYFRDKAFPNLSARQLGVMPDLVLDMFINGYYLNVFKTQSTDVNRPYQDKDKRGGIFDAVFNRGDQTTLLTARHDLKNKTLNDISTLIKQELSSGKALALSHTYANVSISHVINLWGADFNAEGNLEAIYVTDSDANSNIGMKKYKVGVNAHGKVAISAKKIEGENIGAQVLGLFTLSSGKDIWQKLSLEHHHHHH	966	482	0	0
PRT-694 (protein) MTITSVWTKGVTPPTPEDFRYNNEDVLHAPYVANQGWYDITKTFDGKDNLLCGAATAGNMLHWWFDQNKEEIERYLKKYPEKQKIIFNNQELFDVRAAINTKDSQTNSKLFNYFRDKAFPNLSARQLGVMPDLVLDMFINGYYLNLGKTQSTDVNRPYQDKDKRGGIFDAVFNRGDQTTLLTARHDLKNKGLNEISDLIKQELSSGKALALSHTYANVRINHVINLWGADFDAEGNLIAIYVTDSDANSNIGMKKYKVGVNANGKVAISAKKIEGDNIGAQVLGLFTLSTGQDIWQKLSLEHHHHHH	541	0	1030	15
PRT-568 (protein) MANQEIRYSEATPSHITSVWTKGVTPPTQFIQNEDVLHAPYIANQGWYDITKTFNGKDDLLCGAATAGNMLHWWFDQNKTQIENYLKKHPEKQKINFNGEQMFDVKEAIDTKDSQTDSALFSYFKDKAFPYLSTKHLGVFPDHVIDMFINGYRLSLTNHGPTPVKRQTKDPRGGIFDAVFTRGDQSKLLTARHDFKEKTLNEISQLIKQELTEGKALGLSHTYANVRINHVINLWGADFNAEGNLEAIYVTDSDSNASIGMKKYYVGVNAAGHVAISAKEIEGDNIGAQVLGLFTLSTGQDIWQQTNLEHHHHHH	880	402	0	0
PRT-564 (protein) MANQEIRYSEATPSHITSVWTKGVTPPTQFIQNEDVLHAPYIANQGWYDITKTFNGKDDLLCGAATAGNMLHWWFDQNKTQIENYLKKHPEKQKINFNGEQMFDVKEAIDTKDSQTDSALFSYFKDKAFPYLSTKHLGVFPDHVIDMFINGYRLSLTNHGPTPVKRQTKDPRGGIFDAVFTRGDQSKLLTSRHDFKEKTLNEISQLIKQELTEGKALGLSHTYANVRINHVINLWGADFNAEGNLEAIYVTDSDSNASIGMKKYYVGVNAAGKVAISAKEIEGDNIGAQVLGLFTLSTGQDIWQQTNLEHHHHHH	651	351	0	0
PRT-660 (protein) MQITSVWTKGVTPLTPEQFRYNNEDVIHAPYLAHQGWYDITKAFDGKDNLLCGAATAGNMLHWWFDQNKTEIEAYLSKHPEKQKIIFNNQELFDLRKAINTKDDQKESALFNYFRKKAFPNLSARQLGVMPDLVLDMFINGYYLNVFKTQSTDVNRPYQDKDKRGGIFDAVFTRGDQTTLLTARHDLKNKGLNDISTIIKQELTEGRALALSHTYANVSISHVINLWGADFNAEGNLEAIYVTDSDANASIGMKKYFVGINAHGHVAISAKKIEGENIGAQVLGLFTLSSGKDIWQKLSLEHHHHHH	161	320	105	668
PRT-377 (protein) MVTSVWTKGVTPPTNFTYGEDVLHAPYVANQGWYDITKTFNGKDDLLCGAATAGNMLHWWFDQNKEQIENYLKKHPEKQKINFNGEQMFDVKEAIDTKDSQLDSKLFEYFLEKAFPYLSTKHLGVFPDHVIDMFINGYRLSLTNHGPTPVKRGSKDPRGGIFDAVFTRGDQSKLLTNRHDFKEKTLKEISDLIKQELTEGKALGISHTYANVRINHVINLWGADFDAEGNLEAIYVTDSDSNASIGMKKYFVGVNSNGKVAISAKEIEEDNIGAQVLGLFTLSTGQDIWNQTN	572	348	0	242
